The text below walks through data of US20250304690A1 (HANGZHOU VIROMAB BIOTECH, published 2025).

For test [1], the target named is T1, CD3 on Jurkat cells and on human T cells (human, UniProt P07766 23-207).
T1 construct: whole, on cells; also called CD3 end; CD3 antigen
Briefly: flow cytometry on Jurkat cells. A general note: Flow cytometry measures light scatter and fluorescence of single cells or particles in a stream.
Description: Jurkat cells were plated, washed with a FACS buffer, and centrifuged at 1200 rpm for 3-5 min. Then diluted antibodies with different concentrations were added at 100 L/well. The cells were incubated at 4° C. for 0.5 h, centrifuged at 1200 rpm for 3-5 min, and washed with a FACS buffer. Then a diluted goat anti-human IgG (FITC, Abcam/ab97224) antibody was added. The cells were incubated at 4° C. for 0.5 h, centrifuged at 1200 rpm for 3-5 min, washed with a FACS buffer, and resuspended in 50 μL of a FACs buffer, and assays were performed using a flow cytometer.

Test [2] deals with TT3 labeling polypeptide on cells. Nature of the test: flow cytometry on HCT116-TT3 cells.
Sequence of TT3 labeling polypeptide on cells (P01732 other isoform, or with tags, fused parts or gaps limits assumed): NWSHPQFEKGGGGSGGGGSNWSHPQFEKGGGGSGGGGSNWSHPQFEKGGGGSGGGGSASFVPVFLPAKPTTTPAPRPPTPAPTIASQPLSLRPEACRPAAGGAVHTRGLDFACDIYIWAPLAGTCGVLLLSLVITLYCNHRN

T1 sequence (P07766 23-207): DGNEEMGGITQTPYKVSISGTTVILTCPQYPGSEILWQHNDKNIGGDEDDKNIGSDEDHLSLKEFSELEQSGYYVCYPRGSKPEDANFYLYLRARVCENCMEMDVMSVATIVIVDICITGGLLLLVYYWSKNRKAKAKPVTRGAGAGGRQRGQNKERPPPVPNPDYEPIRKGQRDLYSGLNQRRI

B1: BK-A-101 (bispecific antibody, human IgG1, kappa)
heavy: not shown
light: QAVVTQESALTTSPGETVTLTCRSSTGAVTTSNYANWVQEKPDHLFTGLIGGTNKRAPGVPARFSGSLIGDKAALTITGAQTEDEAIYFCALWYSNLWVFGGGTKLTVLRTVAAPSVFIFPPSDEQLKSGTASVVCLLNNFYPREAKVQWKVDNALQSGNSQESVTEQDSKDSTYSLSSTLTLSKADYEKHKVYACEVTHQGLSSPVTKSFNRGEC
notes: also called bispecific antibody; the bispecific antibody
What is called EC50 is the concentration needed to bring the measured effect to its halfway point. In the case of B1, the values for the EC50 in test [1] and in test [2] were 0.8 nM and 15.8 nM, respectively.

B2: BK-D-08 (bispecific antibody, human IgG1, kappa)
heavy: QVQLVQSGAEVKKPGASVKVSCKASGYTFTNYYMKWVKQAPGQRLEWMGDLNPNNGDTFYNQKFKGRVTITVDKSASTAYMELSSLRSEDTAVYYCARTGRYEENAMDYWGQGTLVTVSSASTKGPSVFPLAPSSKSTSGGTAALGCLVKDYFPEPVTVSWNSGALTSGVHTFPAVLQSSGLYSLSSVVTVPSSSLGTQTYICNVNHKPSNTKVDKRVEPKSCDKTHTCPPCPAPEFEGGPSVFLFPPKPKDTLMISRTPEVTCVVVDVSHEDPEVKFNWYVDGVEVHNAKTKPREEQYNSTYRVVSVLTVLHQDWLNGKEYKCKVSNKALPASIEKTISKAKGQPREPQVYTLPPSREEMTKNQVSLTCLVKGFYPSDIAVEWESNGQPENNYKTTPPVLDSDGSFFLYSKLTVDKSRWQQGNVFSCSVMHEALHNHYTQKSLSLSPGKGGGGSGGGGSGGGGSQAVVTQEPSLTVSPGGTVTLTCRSSTGAVTTSNYANWVQQKPGQAPRGLIGGTNKRAPWTPARFSGSLLGGKAALTLSGAQPEDEAEYYCALWYSNLWVFGGGTKLTVLGGGGSGGGGSGGGGSEVQLVESGGGLVQPGGSLRLSCAASGFTFNTYAMNWVRQAPGKGLEWVARIRSKYNNYATYYADSVKDRFTISRDDSKNILYLQMNSLKTEDTAMYYCVRHGNFGNSYVSWFAYWGQGTLVTVSA
light: DIVLTQSPASLAVSPGQRATITCRASESVDSYGKSFMHWYQQKPGQPPKLLIYRASNLESGVPARFSGSGSRTDFTLTINPVEANDTANYYCQQNNEDPWTFGQGTKLEIKRTVAAPSVFIFPPSDEQLKSGTASVVCLLNNFYPREAKVQWKVDNALQSGNSQESVTEQDSKDSTYSLSSTLTLSKADYEKHKVYACEVTHQGLSSPVTKSFNRGEC
Consider B2, for which the EC50 in test [1] came out at 136 nM; in test [2], 0.368 nM.

B3: BK-D-03 (bispecific antibody, human IgG1, kappa)
heavy: QVQLVQSGAEVKKPGASVKVSCKASGYTFTNYYMKWVKQAPGQRLEWMGDLNPNNGDTFYNQKFKGRVTITVDKSASTAYMELSSLRSEDTAVYYCARTGRYEENAMDYWGQGTLVTVSSASTKGPSVFPLAPSSKSTSGGTAALGCLVKDYFPEPVTVSWNSGALTSGVHTFPAVLQSSGLYSLSSVVTVPSSSLGTQTYICNVNHKPSNTKVDKRVEPKSCDKTHTCPPCPAPEFEGGPSVFLFPPKPKDTLMISRTPEVTCVVVDVSHEDPEVKFNWYVDGVEVHNAKTKPREEQYNSTYRVVSVLTVLHQDWLNGKEYKCKVSNKALPASIEKTISKAKGQPREPQVYTLPPSREEMTKNQVSLTCLVKGFYPSDIAVEWESNGQPENNYKTTPPVLDSDGSFFLYSKLTVDKSRWQQGNVFSCSVMHEALHNHYTQKSLSLSPGKGGGGSGGGGSGGGGSQAVVTQEPSLTVSPGGTVTLTCRSSTGAVTTSNYANWVQQKPGQAPRGLIGGTNKRAPWTPARFSGSLLGGKAALTLSGAQPEDEAEYYCALWYSNLWVFGGGTKLTVLGGGGSGGGGSGGGGSEVQLVESGGGLVQPGGSLRLSCAASGFTFNTYAMNWVRQAPGKGLEWVARIRSKYNNYATYYADSVKDRFTISRDDSKNSLYLQMNSLKTEDTAVYYCVRHGNFGNSYVSWFAYWGQGTLVTVSA
light: DLVMTQSPASLAVSPGQRATITCRASESVDSYGKSFMHWYQLKPGQPPKLLIYRASNLESGVPARFSGSGSRTDFTLTINPVEANDTANYYCQQNNEDPWTFGQGTKLEIKRTVAAPSVFIFPPSDEQLKSGTASVVCLLNNFYPREAKVQWKVDNALQSGNSQESVTEQDSKDSTYSLSSTLTLSKADYEKHKVYACEVTHQGLSSPVTKSFNRGEC
B3: the figures for the EC50 in test [1] and in test [2] were 111 nM and 0.464 nM, respectively.

B4: BK-D-02 (bispecific antibody, human IgG1, kappa)
heavy: QVQLVQSGAEVKKPGASVKVSCKASGYTFTNYYMKWVKQAPGQSLEWIGDLNPNNGDTFYNQKFKGKATLTVDKSASTAYMELNSLRSEDTAVYYCARTGRYEENAMDYWGQGTLVTVSSASTKGPSVFPLAPSSKSTSGGTAALGCLVKDYFPEPVTVSWNSGALTSGVHTFPAVLQSSGLYSLSSVVTVPSSSLGTQTYICNVNHKPSNTKVDKRVEPKSCDKTHTCPPCPAPEFEGGPSVFLFPPKPKDTLMISRTPEVTCVVVDVSHEDPEVKFNWYVDGVEVHNAKTKPREEQYNSTYRVVSVLTVLHQDWLNGKEYKCKVSNKALPASIEKTISKAKGQPREPQVYTLPPSREEMTKNQVSLTCLVKGFYPSDIAVEWESNGQPENNYKTTPPVLDSDGSFFLYSKLTVDKSRWQQGNVFSCSVMHEALHNHYTQKSLSLSPGKGGGGSGGGGSGGGGSQAVVTQEPSLTVSPGGTVTLTCRSSTGAVTTSNYANWVQQKPGQAPRGLIGGTNKRAPWTPARFSGSLLGGKAALTLSGAQPEDEAEYYCALWYSNLWVFGGGTKLTVLGGGGSGGGGSGGGGSEVQLVESGGGLVQPGGSLRLSCAASGFTFNTYAMNWVRQAPGKGLEWVARIRSKYNNYATYYADSVKDRFTISRDDSKNILYLQMNSLKTEDTAMYYCVRHGNFGNSYVSWFAYWGQGTLVTVSA
light: DLVMTQSPASLAVSPGQRATITCRASESVDSYGKSFMHWYQLKPGQPPKLLIYRASNLESGVPARFSGSGSRTDFTLTINPVEANDTANYYCQQNNEDPWTFGQGTKLEIKRTVAAPSVFIFPPSDEQLKSGTASVVCLLNNFYPREAKVQWKVDNALQSGNSQESVTEQDSKDSTYSLSSTLTLSKADYEKHKVYACEVTHQGLSSPVTKSFNRGEC
With B4, the EC50 in test [1] stood at 80.3 nM; in test [2], 0.099 nM.

B5: BK-D-04 (bispecific antibody, human IgG1, kappa)
heavy: QVQLVQSGAEVKKPGASVKVSCKASGYTFTNYYMKWVKQAPGQRLEWMGDLNPNNGDTFYNQKFKGRVTITVDKSASTAYMELSSLRSEDTAVYYCARTGRYEENAMDYWGQGTLVTVSSASTKGPSVFPLAPSSKSTSGGTAALGCLVKDYFPEPVTVSWNSGALTSGVHTFPAVLQSSGLYSLSSVVTVPSSSLGTQTYICNVNHKPSNTKVDKRVEPKSCDKTHTCPPCPAPEFEGGPSVFLFPPKPKDTLMISRTPEVTCVVVDVSHEDPEVKFNWYVDGVEVHNAKTKPREEQYNSTYRVVSVLTVLHQDWLNGKEYKCKVSNKALPASIEKTISKAKGQPREPQVYTLPPSREEMTKNQVSLTCLVKGFYPSDIAVEWESNGQPENNYKTTPPVLDSDGSFFLYSKLTVDKSRWQQGNVFSCSVMHEALHNHYTQKSLSLSPGKGGGGSGGGGSGGGGSQAVVTQEPSLTVSPGGTVTLTCRSSTGAVTTSNYANWVQQKPGQAPRGLIGGTNKRAPWVPARFSGSLLGDKAALTLSGAQTEDEAEYYCALWYSNLWVFGGGTKLTVLGGGGSGGGGSGGGGSEVQLVESGGGLVQPGGSLRLSCAASGFTFNTYAMNWVRQAPGKGLEWVARIRSKYNNYATYYADSVKDRFTISRDDSKNSLYLQMNSLKTEDTAVYYCVRHGNFGNSYVSWFAYWGQGTLVTVSA
light: DIVLTQSPASLAVSPGQRATITCRASESVDSYGKSFMHWYQQKPGQPPKLLIYRASNLESGVPARFSGSGSRTDFTLTINPVEANDTANYYCQQNNEDPWTFGQGTKLEIKRTVAAPSVFIFPPSDEQLKSGTASVVCLLNNFYPREAKVQWKVDNALQSGNSQESVTEQDSKDSTYSLSSTLTLSKADYEKHKVYACEVTHQGLSSPVTKSFNRGEC
B5: the values for the EC50 in test [1] and in test [2] were 18.2 nM and 0.47 nM, respectively.

B6: BK-D-05 (bispecific antibody, human IgG1, kappa)
heavy: QVQLVQSGAEVKKPGASVKVSCKASGYTFTNYYMKWVKQAPGQRLEWMGDLNPNNGDTFYNQKFKGRVTITVDKSASTAYMELSSLRSEDTAVYYCARTGRYEENAMDYWGQGTLVTVSSASTKGPSVFPLAPSSKSTSGGTAALGCLVKDYFPEPVTVSWNSGALTSGVHTFPAVLQSSGLYSLSSVVTVPSSSLGTQTYICNVNHKPSNTKVDKRVEPKSCDKTHTCPPCPAPEFEGGPSVFLFPPKPKDTLMISRTPEVTCVVVDVSHEDPEVKFNWYVDGVEVHNAKTKPREEQYNSTYRVVSVLTVLHQDWLNGKEYKCKVSNKALPASIEKTISKAKGQPREPQVYTLPPSREEMTKNQVSLTCLVKGFYPSDIAVEWESNGQPENNYKTTPPVLDSDGSFFLYSKLTVDKSRWQQGNVFSCSVMHEALHNHYTQKSLSLSPGKGGGGSGGGGSGGGGSQAVVTQEPSLTVSPGGTVTLTCRSSTGAVTTSNYANWVQQKPGQAPRGLIGGTNKRAPWTPARFSGSLLGGKAALTITGAQTEDEAEYYCALWYSNLWVFGGGTKLTVLGGGGSGGGGSGGGGSEVQLVESGGGLVQPGGSLRLSCAASGFTFNTYAMNWVRQAPGKGLEWVARIRSKYNNYATYYADSVKDRFTISRDDSKNILYLQMNSLKTEDTAVYYCVRHGNFGNSYVSWFAYWGQGTLVTVSA
light: DIVLTQSPASLAVSPGQRATITCRASESVDSYGKSFMHWYQQKPGQPPKLLIYRASNLESGVPARFSGSGSRTDFTLTINPVEANDTANYYCQQNNEDPWTFGQGTKLEIKRTVAAPSVFIFPPSDEQLKSGTASVVCLLNNFYPREAKVQWKVDNALQSGNSQESVTEQDSKDSTYSLSSTLTLSKADYEKHKVYACEVTHQGLSSPVTKSFNRGEC
On to B6, for which the values for the EC50 in test [1] and in test [2] were 71.4 nM and 1.04 nM, respectively.

B7: BK-D-01 (bispecific antibody, human IgG1, kappa)
heavy: QVQLVQSGAEVKKPGASVKVSCKASGYTFTNYYMKWVKQAPGQSLEWIGDLNPNNGDTFYNQKFKGKATLTVDKSASTAYMELNSLRSEDTAVYYCARTGRYEENAMDYWGQGTLVTVSSASTKGPSVFPLAPSSKSTSGGTAALGCLVKDYFPEPVTVSWNSGALTSGVHTFPAVLQSSGLYSLSSVVTVPSSSLGTQTYICNVNHKPSNTKVDKRVEPKSCDKTHTCPPCPAPEFEGGPSVFLFPPKPKDTLMISRTPEVTCVVVDVSHEDPEVKFNWYVDGVEVHNAKTKPREEQYNSTYRVVSVLTVLHQDWLNGKEYKCKVSNKALPASIEKTISKAKGQPREPQVYTLPPSREEMTKNQVSLTCLVKGFYPSDIAVEWESNGQPENNYKTTPPVLDSDGSFFLYSKLTVDKSRWQQGNVFSCSVMHEALHNHYTQKSLSLSPGKGGGGSGGGGSGGGGSQAVVTQEPSLTVSPGGTVTLTCRSSTGAVTTSNYANWVQQKPGQAPRGLIGGTNKRAPWTPARFSGSLLGGKAALTLSGAQPEDEAEYYCALWYSNLWVFGGGTKLTVLGGGGSGGGGSGGGGSEVQLVESGGGLVQPGGSLRLSCAASGFTFNTYAMNWVRQAPGKGLEWVARIRSKYNNYATYYADSVKDRFTISRDDSKNSLYLQMNSLKTEDTAVYYCVRHGNFGNSYVSWFAYWGQGTLVTVSA
light: DIVLTQSPASLAVSPGQRATITCRASESVDSYGKSFMHWYQQKPGQPPKLLIYRASNLESGVPARFSGSGSRTDFTLTINPVEANDTANYYCQQNNEDPWTFGQGTKLEIKRTVAAPSVFIFPPSDEQLKSGTASVVCLLNNFYPREAKVQWKVDNALQSGNSQESVTEQDSKDSTYSLSSTLTLSKADYEKHKVYACEVTHQGLSSPVTKSFNRGEC
Regarding B7, the EC50 in test [1] came to 62.5 nM; in test [2] it was 0.07 nM.
